A short description of this data set: Enzyme activity after freeze-drying with stabilisers. The conditions noted are these: freeze-dried with different stabilisers, compared with non-freeze-dried standard. The format is physicochemical. On the procedure:
FIG. 23A: RcArgZ activity levels after freeze-drying with different additives. RcArgZ was purified and exchanged into the freeze-drying buffers. The buffers contained 50 mM Tris-Cl pH 8.0, 1 mM MgCl2, and one of the stabilisers. The stabilisers were the following: 1 mM mannitol, 40 mg/mL mannitol, 1 mM sucrose, 10 mg/mL sucrose, 1 mM trehalose, 20 mg/mL trehalose, or 20 mg/mL sucrose and 40 mg/mL mannitol. The sample was then snap frozen using liquid nitrogen before putting in a benchtop freeze-dryer. The sample was left drying for 18-24 hours. The activity of the freeze-dried enzymes was tested and compared with the non-freeze-dried standard (in their corresponding storage buffer).
FIG. 23B: HpGS activity levels after freeze-drying with different additives. HpGS was purified and buffer exchanged to the freeze-drying buffers. The buffers contained 50 mM Tris-Cl pH 8.0, 1 mM MgCl2, and the stabilisers. The stabilisers were the following: 1 mM mannitol, 40 mg/mL mannitol, 1 mM sucrose, 10 mg/mL sucrose, 1 mM trehalose, 20 mg/mL trehalose, or 20 mg/mL sucrose and 40 mg/mL mannitol. The sample was then snap frozen using liquid nitrogen before putting in a benchtop freeze-dryer. The sample was left drying for 18-24 hours. The activity of the freeze-dried enzymes was tested and compared with the non-freeze-dried standard (in their corresponding storage buffer). […]

B1: BpsA: Streptomyces lavendulae blue pigment synthetase A, converts glutamine to indigoidine, SEQ ID NO: 1 (protein, UniProt Q1MWN4 1-1282, looked up)
Indigoidine synthase: MTLQETSVLEPTLQGTTTLPGLLAQRVAEHPEAIAVAYRDDKLTFRELASRSAALADYLEHLGVSADDCVGLFVEPSIDLMVGAWGILNAGAAYLPLSPEYPEDRLRYMIENSETKIILAQQRLVSRLRELAPKDVTIVTLRESEAFVRPEGTEAPAARSARPDTLAYVIYTSGSTGKPKGVMIEHRSIVNQLGWLRETYAIDRSKVILQKTPMSFDAAQWEILSPANGATVVMGAPGVYADPEGLIETIVKHNVTTLQCVPTLLQGLIDTEKFPECVSLQQIFSGGEALSRLLAIQTTQEMPGRALINVYGPTETTINSSSFPVDPADLDEGPQSISIGSPVHGTTYHILDKETLKPVGVGEIGELYIGGIQLARGYLHRDDLTAERFLEIELEEGAEPVRLYKTGDLGQWNNDGTVQFAGRADNQVKLRGYRVELDEISLAIENHDWVRNAAVIVKNDGRTGFQNLIACIELSEKEAALMDQGNHGSHHASKKSKLQVKAQLSNPGLRDDAELAARPAFDLEGAEPTPEQRARVFARKTYRFYEGGAVTQADLLGLLGATVTAGYSRKAADLAPAELGQILRWFGQYISEERLLPKYGYASPGALYATQMYFELEGVGGLKPGYYYYQPVRHQLVLISEREATGKATAQIHFIGKKSGIEPVYKNNILEVLEIETGHMVGLFEQILPAYGLDIHDRAYEPAVKDLLDVADEDYYLGTFELVPHAGARDDQAEVYVQTHGGKVAGLPEGQYRYENGELTRFSDDIVLKKHVIAINQSVYQAASFGISVYSRAEEEWLKYITLGKKLQHLMMNGLNLGFMSSGYSSKTGNPLPASRRMDAVLGANGVDSAPMYFFVGGRISDEQIGHEGMREDSVHMRGPAELIRDDLVSFLPDYMIPNRVVVFDRLPLSANGKIDVKALAASDQVNAELVERPFVAPRTETEKEIAAVWEKALRRENASVQDDFFESGGNSLIAVGLVRELNARLGVSLPLQSVLESPTIEKLARRLEREVAQESSRFVRLHAETGKARPVICWPGLGGYPMNLRSLAGEIGLGRSFYGVQSYGINEGETPYETITEMAKKDIEALKEIQPAGPYTLWGYSFGARVAFETAYQLEQAGEKVDNLFLIAPGSPKVRAENGKVWGREASFANRGYTTILFSVFTGTISGPDLDRCLETVTDEASFAEFISELKGIDVDLARRIISVVGQTYEFEYSFHELAERTLQAPISIFKAVGDDYSFLENSSGYSAEPPTVIDLDADHYSLLREDIGELVKHIRYLLGE
Take B1: the activity when freeze-dried result is given as “able to retain activity”.

For the origin of these results see US20250003940A1, “BIOSENSOR, BIOSENSOR COMPONENTS, AND USE THEREOF” (VICTORIA LINK LIMITED, priority 2021, published 2025).
